US20200283529A1 (UNIVERSITY OF BRITISH COLUMBIA, published 2020)

Assays:
[1] = molecular target: T1, HLA-A*23:01 on FlowPRA Single Antigen beads (human, UniProt P13749 25-305 (Pan troglodytes entry), limits assumed); test: single antigen FlowPRA bead assay, flow cytometry
T1 construct: Bought HLA class I antigen on One Lambda beads. b2m and peptide are not described
T1 MHC heavy: not shown

[2] = molecular target: T2, HLA-A*24:02 on FlowPRA Single Antigen beads (human, UniProt P04439-2 25-302 at identity 0.92)); test: single antigen FlowPRA bead assay, flow cytometry
T2 construct: Bought HLA class I antigen on One Lambda beads. b2m and peptide are not described
T2 MHC heavy: not shown

B1: BB7.2 antibody (antibody, IgG2b, V domains shown)
VH: QVQLQQSGPELVKPGASVKMSCKASGYTFTSYHIQWVKQRPGQGLEWIGWIYPGDGSTQYNEKFKGKTTLTADKSSSTAYMLLSSLTSEDSAIYFCAREGTYYAMDYWGQGTSVTVSS
VL: DVLMTQTPLSLPVSLGDQVSISCRSSQSIVHSNGNTYLEWYLQKPGQSPKLLIYKVSNRFSGVPDRFSGSGSGTDFTLKISRVEAEDLGVYYCFQGSHVPRTFGGGTKLEIK
notes: also called mouse monoclonal antibody (BB7.2)
B1: no binding [1]; no binding [2].
